Reference: US20250027068

Target: pooled human IgG (human IgG1,2,3 and 4)

B1: PRT-507 (protein)
chain: MITSVWTKGVTPPTDFIKGEDVFHAPYKAGQGWYDITKAFDGGDDLLCGAATAGNMLHWWFDQNKEEIEAYLKKHPEKQKIMFGDQELLDVRKVINTKDSQTNSALFNYFKDKAFPNLSARRLGVMPDLVLDMFINGYYLNVYKTQTTDVNRTYQTKDRRGGIFDAVFTRGDQSKLLTERHDFKEKTLKEISDLIKQELTEGKALGLSHTYANVRINHVINLWGADFDSNGNLEAIYVTDSDSNASIGMKKYFVGVNSAGKVAISAKEIKEDNIGAQVLGLFTLSTGQDIWNQTNLEHHHHHH
Enzyme Activity Endpoint Assay (purified): Fab′2: 927 ng/µL | Enzyme Activity Endpoint Assay (purified): Fc: 355 ng/µL | Enzyme Activity Endpoint Assay (purified): IgG: 112 ng/µL | Enzyme Activity Endpoint Assay (purified): scIgG: 0 ng/µL

B2: PRT-617 (protein)
chain: MQITSVWTKGVTPLTPEQFRYNNEDVIHAPYLPHQGWYDITKAFDGGDNLLCGAATAGNMLHWWFDQNKTEIEAYLSKYPEKQKIIFNNQELFDLRAAINSKDSQTNSQLFNYFRDKAFPNLSARQLGVMPDLVLDMFINGYYLNVFKTQSTDVNRPYQDPDKRGGIFDDVFKEGDQTTLLTARHDLKNGGLNDISTIIKQELQSGRALALSHTYANVSISHVINLWGADFNAEGNLEAIYVTDSDANQSIGMKKYKVGINAHGHVAISAKKIEGENIGAQVLGLFTLSSGKEIWQKLSLEHHHHHH
Enzyme activity endpoint: Fab′2: 630 ng/µL | Enzyme activity endpoint: Fc: 34 ng/µL | Enzyme activity endpoint: IgG: 798 ng/µL | Enzyme activity endpoint: scIgG: 25 ng/µL

B3: PRT-531 (protein)
chain: MANQEIRYSEDTPSHITSVWTKGVTPPTQFIQNEDVLHAPYIANQGWYDITKTFNGKDDLLCGAATAGNMLHWWFDQNKEQIEAYLKKYPEKQKINFNGEQMFDVKEAIDTKDSQTDSALFNYFRDKAFPNLSTKHLGVMPDHVIDMFINGYRLNLGNHGPTPVKNQTKDLRGGIFDAVFTRGDQSKLLTARHDFKEKTLKEISQLIKQELTEGKALALSHTYANVRINHVINLWGADFNAEGNLEAIYVTDSDSNASIGMKKYYVGVNAAGKVAISAKEIEGDNIGAQVLGLFTLSSGQDIWQQTNLEHHHHHH
Enzyme activity endpoint: Fab′2: 756 ng/µL | Enzyme activity endpoint: Fc: 212 ng/µL | Enzyme activity endpoint: IgG: 0 ng/µL | Enzyme activity endpoint: scIgG: 0 ng/µL

B4: PRT-689 (protein)
chain: MQITSVWTKGVTPLTMDQFTNNNEDVIHAPYKPGQGWYDITKTFDGKDNLLCGAATAGNMLHWWFDQNKEEIENYLKKHPEKQKIIFNNQKLFDLRKAINTKDSQTNSALFNYFRDKAFPNLSARQLGVMPDLVLDMFINGYYLNVFKTQSTDVNREYQTKDKRGGIFDDVFGRGDQTTLLTARHDLKNGGLNDISQIIKQELSSGKALALSHTYANVSISHVINLWGADFNEEGNLEAIYVTDSDANASIGMKKYYVGKNAHGKVAISAKKIEGENIGAQVLGLFTLSSGKEIWQKLSLEHHHHHH
Enzyme Activity Endpoint Assay (purified): Fab′2: 335 ng/µL | Enzyme Activity Endpoint Assay (purified): Fc: 248 ng/µL | Enzyme Activity Endpoint Assay (purified): IgG: 376 ng/µL | Enzyme Activity Endpoint Assay (purified): scIgG: 174 ng/µL

B5: PRT-488 (protein)
chain: MVTSVWTKGVTPPTDFRKIVDGNIAYYHAPYKAGQGWYDITKAFDGGDNLLCGAATAGNMLHWWFDQNKDQIERYLKEHPEKQKIIFNNQELFDLKAAIDTKDSQTNSELFNYFKEKAFPYLSTKHLGVFPDHVLDMFINGYRLSLTNHGPTPVKEGSKDKRGGIFDAVFTRGVQSKLLTSRHDLKNKTLKEISDLIKQELTEGKALGLSHTYANVRINHVINLWGADFDSEGNLKAIYVTDSDTNASIGMKKYFVGVNSAGKVAISAKEIKEDNIGAQVLGLFTLSTGQDIWNQTNLEHHHHHH
Enzyme Activity Endpoint Assay (purified): Fab′2: 134 ng/µL | Enzyme Activity Endpoint Assay (purified): Fc: 246 ng/µL | Enzyme Activity Endpoint Assay (purified): IgG: 216 ng/µL | Enzyme Activity Endpoint Assay (purified): scIgG: 803 ng/µL

B6: PRT-695 (protein)
chain: MTITTVWTKGVTPPTPEDFRYNNEDVLHAPYVPNQGWYDITKTFDGKDNLLCGAATAGNMLHWWFDQNKEEIERYLKKYPEKQKIIFNNQELFDVRAAINTKDSQTNSKLFNYFRDKAFPNLSARQLGVMPDLVLDMFINGYYLNLGKTQSTDVNRPYQDRDKRGGIFDAVFNRGDQTTLLTARHDLKNKGLNEISDLIKQELSSGKALALSHTYANVRINHVINLWGADFDAEGNLIAIYVTDSDANASIGMKKYYVGVNANGKVAISAKKIEGDNIGAQVLGLFTLSTGQDIWQKLSLEHHHHHH
Enzyme activity endpoint: Fab′2: 781 ng/µL | Enzyme activity endpoint: Fc: 433 ng/µL | Enzyme activity endpoint: IgG: 66 ng/µL | Enzyme activity endpoint: scIgG: 0 ng/µL

B7: PRT-524 (protein)
chain: MITSVWTKGVTPPTDFRKIVDGNIAYYHAPYKAGQGWYDITKAFDGGDNLLCGAATAGNMLHWWFDQNKEEIEAYLKKHPEKQKIIFNNQELFDLKAVINTKDSQTNSALFNYFKDKAFPNLSARRLGVFPDLVLDMFINGYYLNVYKTQTTDVNRTYQTKDRRGGIFDAVFTRGVQSKLLTERHDLKNKTLKEISDLIKQELTEGKALGLSHTYANVRINHVINLWGADFDSNGNLEAIYVTDSDTNASIGMKKYFVGVNSAGKVAISAKEIKEDNIGAQVLGLFTLSTGQDIWNQTNLEHHHHHH
Enzyme Activity Endpoint Assay (purified): Fab′2: 474 ng/µL | Enzyme Activity Endpoint Assay (purified): Fc: 285 ng/µL | Enzyme Activity Endpoint Assay (purified): IgG: 676 ng/µL | Enzyme Activity Endpoint Assay (purified): scIgG: 0 ng/µL

B8: PRT-505 (protein)
chain: MVTSVWTKGVTPPTDFIKGEDVFHAPYKAGQGWYDITKAFDGGDDLLCGAATAGNMLHWWFDQNKEYIEAYLKKHPEKQKIMFGDQELLDVRKAINTKGSQKNSELFNYFRDKAFPNLSARRLGVMPDLVLDMFINGYYLNVTKTQTTDVNRQEQEKDKRGGIFDAVFGRGDQTKLLTSRHDLKNKGLKEISDLIKQELTEGKALGLSHTYANVRINHVINLWGADFDSDGNLKAIYVTDSDSNASIGMKKYFVGVNSAGKVAISAKEIKEDNIGAQVLGLFTLSTGQKIWNKTNLEHHHHHH
Enzyme Activity Endpoint Assay (purified): Fab′2: 37 ng/µL | Enzyme Activity Endpoint Assay (purified): Fc: 148 ng/µL | Enzyme Activity Endpoint Assay (purified): IgG: 609 ng/µL | Enzyme Activity Endpoint Assay (purified): scIgG: 752 ng/µL

B9: PRT-683 (protein)
chain: MQITSVWTKGVTPLTPEQFRYNNEDVIHAPYLAHQGWYDITKAFNGKDNLLCGAATAGNMLHWWFDQNKEEIEAYLKKHPEKQKIIFNNQELFDLRKAINTKDSQTNSQLFNYFRDKAFPNLSARQLGVMPDLVLDMFINGYYLNVFKTQSTDVNRPYQDKDKRGGIFDHVFTRGDQTTLLTARHDLKNKTLNDISQIIKQELQEGKALALSHTYANVSISHVINLWGADFNAEGNLEAIYVTDSDANASIGMKKYFVGKNAHGHVAISAKKIEGENIGAQVLGLFTLSSGKEIWQKLSLEHHHHHH
Enzyme activity endpoint: Fab′2: 1100 ng/µL | Enzyme activity endpoint: Fc: 570 ng/µL | Enzyme activity endpoint: IgG: 0 ng/µL | Enzyme activity endpoint: scIgG: 0 ng/µL

B10: PRT-613 (protein)
chain: MQITTVWTKGVTPLTPEQFRYNNEDVIHAPYLAHQGWYDITKAFDGKDNLLCGAATAGNMLHWWFDQNKTEIEAYLSKHPEKQKIIFNNQELFDLKAAISTKDSQTNSQLFNYFRDKAFPNLSARQLGVMPDLVLDMFINGYYLNVFKTQSTDVNRPYQDKDKRGGIFDDVFTRGDQTTLLTARHDLKNGGLNDISTIIKQELTNGRALALSHTYANVSISHVINLWGADFNAEGNLEAIYVTDSDANARIGMKKYGVGINAHGHVAISAKKIEGENIGAQVLGLFTLSSGKDIWQKLSLEHHHHHH
Enzyme activity endpoint: Fab′2: 686 ng/µL | Enzyme activity endpoint: Fc: 433 ng/µL | Enzyme activity endpoint: IgG: 15 ng/µL | Enzyme activity endpoint: scIgG: 251 ng/µL

B11: PRT-675 (protein)
chain: MQITSVWTKGVTPPTMDDFTINGEDVFHAPYVANQGWYDITKTFNGKDDLLCGAATAGNMLHWWFDQNKEQIERYLKKHPEKQKIIFNNQEMFDLKEAINTKDSQTDSKLFNYFRDKAFPNLSARQLGVMPDHVLDMFINGYYLNLTKTQSTDVNRPEDTKDLRGGIFDHVFTRGDQSKLLTARHDLKNKTLKEISDLIKQELTEGKALGLSHTYANVRISHVINLWGADFDAEGNLEAIYVTDSDSNASIGMKKYYVGVNSAGKVAISAKKIEGDNIGAQVLGLYTLSTGKDIWQKLSLEHHHHHH
Enzyme activity endpoint: Fab′2: 448 ng/µL | Enzyme activity endpoint: Fc: 400 ng/µL | Enzyme activity endpoint: IgG: 229 ng/µL | Enzyme activity endpoint: scIgG: 456 ng/µL

B12: PRT-459 (protein)
chain: MVTSVWTKGVTPPTDFIKGEDVFHAPYKAGQGWYDITKAFDGGDDLLCGAATAGNMLHWWFDQNKDQIERYLKEHPEKQKINFNGEQMFDVKEAIDTKDSQTNSELFNYFKEKAFPYLSTKHLGVFPDHVLDMFINGYRLSLTNHGPTPVKEGSKDPRGGIFDAVFTRGDQSKLLTSRHDFKEKTLKEISDLIKQELTEGKALGLSHTYANVRINHVINLWGADFDSEGNLKAIYVTDSDSNASIGMKKYFVGVNSAGKVAISAKEIKEDNIGAQVLGLFTLSTGQDIWNQTNLEHHHHHH
Enzyme Activity Endpoint Assay (purified): Fab′2: 137 ng/µL | Enzyme Activity Endpoint Assay (purified): Fc: 193 ng/µL | Enzyme Activity Endpoint Assay (purified): IgG: 373 ng/µL | Enzyme Activity Endpoint Assay (purified): scIgG: 415 ng/µL

B13: PRT-673 (protein)
chain: MQITSVWTKGVTPPTPEQFRYYNEDVLHAPYKPHQGWYDITKTFNGKDNLLCGAATAGNMLHWWFDQNKTQIEAYLKKYPEKQKIIFNNQKMFDLRKAINTKDSQTNSALFSYFKDKAFPNLSARQRGVMPDLVLDMFINGYYLNVGKTQSTDVNRPYQTRDKRGGIFDHVFGRGDQTKLLTARHDLKNKTLNEISQLIKQELSEGKALALSHTYANVSISHVINLWGADFNAEGNLEAIYVTDSDSDAKIGMKKYYVGKNASGKVAISAKKIEGENIGAQVLGLYTLSTGKDIWQKLSLEHHHHHH
Enzyme activity endpoint: Fab′2: 34 ng/µL | Enzyme activity endpoint: Fc: 252 ng/µL | Enzyme activity endpoint: IgG: 601 ng/µL | Enzyme activity endpoint: scIgG: 989 ng/µL

B14: PRT-499 (protein)
chain: MVTSVWTKGVTPPADFRKIVDGNIAYYHAPYVANQGWYDITKTFNGKDDLLCGAATAGNMLHWWFDQNKEYIEAYLKKHPEKQKIMFGDQELLDVRKAINTKGSQKNSELFNYFRDKAFPNLSARRLGVMPDLVLDMFINGYYLNVTKTQTTDVNRTYQEKDKRGGIFDAVFTRGDQSKLLTSRHDLKNKGLKEISDLIKQELTEGKALGLSHTYANVRINHVINLWGADFDSDGNLKAIYVTDSDSNASIGMKKYFVGVNSAGKVAISAKEIKEDNIGAQVLGLFTLSTGQDIWNQTNLEHHHHHH
Enzyme Activity Endpoint Assay (purified): Fab′2: 637 ng/µL | Enzyme Activity Endpoint Assay (purified): Fc: 365 ng/µL | Enzyme Activity Endpoint Assay (purified): IgG: 436 ng/µL | Enzyme Activity Endpoint Assay (purified): scIgG: 45 ng/µL
